Reference: patent US20220185894A1 (F STAR THERAPEUTICS, published 2022)

T1: mouse LAG-3 expressed on cells (mouse, UniProt Q61790 24-521)
T1 construct: also called mLAG-3; murine LAG-3 HEK
T1 sequence: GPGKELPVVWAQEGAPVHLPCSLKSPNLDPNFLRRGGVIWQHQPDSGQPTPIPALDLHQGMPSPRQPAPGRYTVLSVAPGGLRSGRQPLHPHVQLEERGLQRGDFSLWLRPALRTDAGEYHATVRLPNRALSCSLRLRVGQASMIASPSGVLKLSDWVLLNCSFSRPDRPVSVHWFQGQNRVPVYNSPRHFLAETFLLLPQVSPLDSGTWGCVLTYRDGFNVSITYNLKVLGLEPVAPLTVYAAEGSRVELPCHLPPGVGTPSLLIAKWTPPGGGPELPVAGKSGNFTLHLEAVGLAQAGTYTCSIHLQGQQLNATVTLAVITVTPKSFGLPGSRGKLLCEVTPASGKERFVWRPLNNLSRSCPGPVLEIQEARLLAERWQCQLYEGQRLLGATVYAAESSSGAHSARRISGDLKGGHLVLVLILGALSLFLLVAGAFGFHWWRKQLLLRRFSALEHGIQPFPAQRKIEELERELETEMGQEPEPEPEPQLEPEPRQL

T2: recombinant Fc-tagged human LAG-3 (R&D Systems, 2319-L3-050) (human, UniProt P18627 23-450)
T2 construct: Bought protein; also called LAG-3 Fc; human LAG-3-Fc; not shown: Fc tag of the bought fusion protein
T2 sequence: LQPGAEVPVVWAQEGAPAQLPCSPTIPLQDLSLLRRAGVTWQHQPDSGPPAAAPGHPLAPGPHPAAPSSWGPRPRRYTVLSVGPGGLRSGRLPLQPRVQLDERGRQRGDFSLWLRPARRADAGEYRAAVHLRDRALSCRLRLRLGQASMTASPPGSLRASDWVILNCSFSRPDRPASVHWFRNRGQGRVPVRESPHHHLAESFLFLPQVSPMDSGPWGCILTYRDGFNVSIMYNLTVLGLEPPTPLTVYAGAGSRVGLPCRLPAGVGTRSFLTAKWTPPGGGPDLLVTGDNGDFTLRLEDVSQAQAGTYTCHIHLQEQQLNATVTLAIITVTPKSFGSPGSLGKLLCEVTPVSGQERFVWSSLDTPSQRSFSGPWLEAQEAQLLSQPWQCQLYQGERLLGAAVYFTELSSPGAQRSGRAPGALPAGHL


Key:
[1] = molecular target: T1, mouse LAG-3 expressed on cells; experiment: flow cytometry on HEK cells expressing murine LAG-3
Description: The affinity of the mAb² (all containing the LALA mutations) binding to cell expressed murine LAG-3 or murine PD-L1 was determined using flow cytometry. HEK cells expressing murine LAG-3 or murine PD-L1 grown in DMEM (Life Technologies, 61965-026) containing 10% FBS (Life Technologies, 10270-1-6), 100 μg/ml Hygromycin B (Melford Laboratories Ltd, Z2475), 15 μg/ml Blasticidin (Melford Laboratories Ltd, B1105) and 1 μg/ml Doxycyclin (Sigma, D9891) were detached from tissue culture flasks using cell dissociation buffer (Life Technologies, 13151-014) and seeded in V-bottom 96-well plates (Costar, 3897) at 2×10⁵ cells/well. The plates were centrifuged at 1500 rpm for 3 min at 4° C. to pellet the cells. A dilution series of the mAb² (or control mAb) were incubated with the cells in a 60 μl volume for 1 h at 4° C. The plates were washed and secondary antibody (Anti-human Fc-488, Jackson ImmunoResearch, 109-546-098 for mAb² or Anti-Rat IgG (H+L), Alexa Fluor 488, ThermoFisher, A-11006 for anti-LAG-3 control, C9B7W) was diluted 1:1000 in PBS and 50 μl was added to the cells for 30 min at 4° C. (plates were kept in the dark). The plates were washed then cells were resuspended in 50 μl FACS Cell Fix (BD Bioscience, 340181) for 15 minutes, then washed and resuspended in 100 μl PBS containing 1 μg/ml DAPI (Biotium, 40043). The plates were read using Canto II flow cytometer (BD Bioscience). Dead cells were excluded and the fluorescence in the FITC channel (488 nm/530/30) was measured. The data was fit using log (agonist) vs response in GraphPad Prism Software. The plates were read on a BD FACSCanto II cytometer (BD Biosciences) and the data analysed using FlowJo.

[2] = molecular target: T3, human PD-L1 Fc (R&D Systems, 156-B7) (human, UniProt Q9NZQ7 19-239); experiment: SPR, BIAcore T200; mAb2 captured on Protein L, PD-L1 Fc injected
T3 construct: Bought protein; not shown: Fc tag of the bought fusion protein
T3 sequence (Q9NZQ7 19-239 limits assumed): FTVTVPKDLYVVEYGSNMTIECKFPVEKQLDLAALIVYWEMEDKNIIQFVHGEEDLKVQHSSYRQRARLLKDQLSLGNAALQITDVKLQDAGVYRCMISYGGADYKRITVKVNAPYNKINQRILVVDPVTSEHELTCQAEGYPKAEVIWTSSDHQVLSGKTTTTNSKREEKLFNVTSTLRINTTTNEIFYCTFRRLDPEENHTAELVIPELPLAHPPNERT
Description: (§1) Protein L (Thermo, 21189) was immobilized on flow cells 1 and 2 of a Series S CM5 chip (GE Healthcare, BR-1005-30) by amine coupling (GE Healthcare, BR-1000-50) to a surface density of 2000 RU by following the manufacturer's instructions for the BIAcore T200 instrument. […] The association time was 3 min and the dissociation time was 6 min. Running buffer was HBS-P (GE Healthcare, BR-1003-68). Both flow cells were regenerated by injecting 10 mM sodium hydroxide (NaOH) at a flow rate of 100 μl/min for 20 seconds. The data were analysed by double referencing against the blank flow cell.
(§2) The binding kinetics were fit with a 1:1 Langmuir model to generate binding association (kₐ) and dissociation (kd) rates. Equilibrium binding constants (KD) were calculated by dividing the dissociation rate by the association rate for each sample. Data analysis was performed with BiaEvaluation software version 3.2.

[3] = molecular target: T2, recombinant Fc-tagged human LAG-3 (R&D …); experiment: SPR, BIAcore T200; mAb2 captured on Protein L, human LAG-3 Fc injected
Description: as §1, §2

[4] = molecular target: T4, human PD-L1 expressed on cells (human, UniProt Q9NZQ7 19-290); experiment: cell-based or functional assay
T4 sequence (Q9NZQ7 19-290 limits assumed): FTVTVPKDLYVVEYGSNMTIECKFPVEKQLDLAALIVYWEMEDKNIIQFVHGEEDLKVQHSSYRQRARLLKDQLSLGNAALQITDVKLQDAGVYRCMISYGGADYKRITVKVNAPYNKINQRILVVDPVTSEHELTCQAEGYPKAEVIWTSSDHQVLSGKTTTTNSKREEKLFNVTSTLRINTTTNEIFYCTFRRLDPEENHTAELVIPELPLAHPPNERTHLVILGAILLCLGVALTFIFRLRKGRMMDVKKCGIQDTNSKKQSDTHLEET

[5] = molecular target: T4, human PD-L1 expressed on cells; experiment: flow cytometry on HEK cells expressing human PD-L1
Description: (§3) HEK cells expressing human or cynomolgus PD-L1 grown in DMEM (Life Technologies, 61965-026) containing 10% FBS (Life Technologies, 10270-1-6), 100 μg/ml Hygromycin B (Melford Laboratories Ltd, Z2475), 15 μg/ml Blasticidin (Melford Laboratories Ltd, B1105) and 1 μg/ml Doxycyclin (Sigma, D9891) were detached from tissue culture flasks using cell dissociation buffer (Life Technologies, 13151-014) and seeded in V-bottom 96-well plates (Costar, 3897) at 2×10⁵ cells/well. The plates were centrifuged at 1500 rpm for 3 min at 4° C. to pellet the cells. A dilution series of the mAb² (or control mAb) was incubated with the cells in a 100 μl volume for 1 h at 4° C. The plates were washed and secondary antibody (Anti-human Fc-488, Jackson ImmunoResearch, 109-546-098) was diluted 1:1000 in PBS and 100 μl was added to the cells for 30 min at 4° C. (plates were kept in the dark). The plates were washed then cells were resuspended in 100 μl PBS containing 1 μg/ml DAPI (Biotium, 40043). The plates were read using Canto II flow cytometer (BD Bioscience). Dead cells were excluded and the fluorescence in the FITC channel (488 nm/530/30) was measured. The data was fit using log (agonist) vs response in GraphPad Prism Software. The plates were read on a BD FACSCanto II cytometer (BD Biosciences) and the data analysed using FlowJo.

[6] = molecular target: T5, cynomolgus PD-L1 expressed on cells (cynomolgus monkey, UniProt Q9NZQ7 19-290 (human entry)); experiment: flow cytometry on HEK cells expressing cynomolgus PD-L1
T5 construct: also called cPD-L1; cyno PD-L1
T5 sequence (Q9NZQ7 other isoform, or with tags, fused parts or gaps limits assumed): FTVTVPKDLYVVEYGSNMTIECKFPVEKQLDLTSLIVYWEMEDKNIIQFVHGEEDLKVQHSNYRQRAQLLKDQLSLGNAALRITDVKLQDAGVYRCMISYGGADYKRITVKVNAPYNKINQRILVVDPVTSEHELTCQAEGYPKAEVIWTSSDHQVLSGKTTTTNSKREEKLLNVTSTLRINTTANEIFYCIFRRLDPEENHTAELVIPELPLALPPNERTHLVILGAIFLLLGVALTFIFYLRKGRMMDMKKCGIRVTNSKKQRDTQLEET
Description: as §3

Row | Binder | EC50 [1] [nM] | Kd [2] [nM] | koff [2] [s⁻¹] | kon [2] [M⁻¹ s⁻¹] | Kd [3] [nM] | koff [3] [s⁻¹] | kon [3] [M⁻¹ s⁻¹] | Maximal IL2 release calculated as % ctrl (84G09 + 25F7) [4] [%] | EC50 [5] [nM] | EC50 [6] [nM]
1 | anti-mouse LAG-3/FITC mAb2 FS18-7-108-29/4420 comprising LALA mutation (bispecific antibody, human IgG1, kappa, L234A L235A, also called FS18-29/4420) heavy: EVKLDETGGGLVQPGRPMKLSCVASGFTFSDYWMNWVRQSPEKGLEWVAQIRNKPYNYETYYSDSVKGRFTISRDDSKSSVYLQMNNLRVEDMGIYYCTGSYYGMDYWGQGTSVTVSSASTKGPSVFPLAPSSKSTSGGTAALGCLVKDYFPEPVTVSWNSGALTSGVHTFPAVLQSSGLYSLSSVVTVPSSSLGTQTYICNVNHKPSNTKVDKKVEPKSCDKTHTCPPCPAPEAAGGPSVFLFPPKPKDTLMISRTPEVTCVVVDVSHEDPEVKFNWYVDGVEVHNAKTKPREEQYNSTYRVVSVLTVLHQDWLNGKEYKCKVSNKALPAPIEKTISKAKGQPREPQVYTLPPSWDEPWGEDVSLTCLVKGFYPSDIVVEWESNGQPENNYKTTPPVLDSDGSFFLYSKLTVPFERWMWPDEFSCSVMHEALHNHYTQKSLSLSPG light: DVVMTQTPLSLPVSLGDQASISCRSSQSLVHSNGNTYLRWYLQKPGQSPKVLIYKVSNRFSGVPDRFSGSGSGTDFTLKISRVEAEDLGVYFCSQSTHVPWTFGGGTKLEIKRTVAAPSVFIFPPSDEQLKSGTASVVCLLNNFYPREAKVQWKVDNALQSGNSQESVTEQDSKDSTYSLSSTLTLSKADYEKHKVYACEVTHQGLSSPVTKSFNRGEC | 2.29 | – | – | – | – | – | – | – | – | –
2 | anti-human LAG-3/PD-L1 mAb2 FS18-7-36/84G09 with LALA mutation (bispecific antibody, human IgG1, kappa, L234A L235A, also called FS18-7-36/84G09LALA) heavy: EVQLVESGGGLVQPGRSLRLSCAASGFTFDDYAMHWVRQTPGKGLEWVSGISWKSNIIGYADSVKGRFTISRDNAKNSLYLQMNSLRAEDTALYYCARDITGSGSYGWFDPWGQGTLVTVSSASTKGPSVFPLAPSSKSTSGGTAALGCLVKDYFPEPVTVSWNSGALTSGVHTFPAVLQSSGLYSLSSVVTVPSSSLGTQTYICNVNHKPSNTKVDKKVEPKSCDKTHTCPPCPAPEAAGGPSVFLFPPKPKDTLMISRTPEVTCVVVDVSHEDPEVKFNWYVDGVEVHNAKTKPREEQYNSTYRVVSVLTVLHQDWLNGKEYKCKVSNKALPAPIEKTISKAKGQPREPQVYTLPPSWDEPWGEDVSLTCLVKGFYPSDIAVEWESNGQPENNYKTTPPVLDSDGSYFLYSKLTVPYDRWVWPDEFSCSVMHEALHNHYTQKSLSLSPG light: DIQMTQSPSSLSASVGDRVTITCRASQSISSYLNWYQQKPGKAPKPLIYVASSLQSGVPSSFSGSGSGTDFTLTISSLQPEDFATYYCQQSYSNPITFGQGTRLEIKRTVAAPSVFIFPPSDEQLKSGTASVVCLLNNFYPREAKVQWKVDNALQSGNSQESVTEQDSKDSTYSLSSTLTLSKADYEKHKVYACEVTHQGLSSPVTKSFNRGEC | – | 3.5 | 0.00056 | 160000 | 0.038 | 0.00017 | 4.4e+06 | 71.6 | 3.91 | 2

More lines, now with the values ahead:

Row | EC50 [1] [nM] | Kd [2] [nM] | koff [2] [s⁻¹] | kon [2] [M⁻¹ s⁻¹] | Kd [3] [nM] | koff [3] [s⁻¹] | kon [3] [M⁻¹ s⁻¹] | Maximal IL2 release calculated as % ctrl (84G09 + 25F7) [4] [%] | EC50 [5] [nM] | EC50 [6] [nM] | Binder
3 | 2.38 | – | – | – | – | – | – | – | – | – | anti-mouse LAG-3/FITC mAb2 FS18-7-108-35/4420 comprising LALA mutation (bispecific antibody, human IgG1, kappa, L234A L235A, also called FS18-35/4420) heavy: EVKLDETGGGLVQPGRPMKLSCVASGFTFSDYWMNWVRQSPEKGLEWVAQIRNKPYNYETYYSDSVKGRFTISRDDSKSSVYLQMNNLRVEDMGIYYCTGSYYGMDYWGQGTSVTVSSASTKGPSVFPLAPSSKSTSGGTAALGCLVKDYFPEPVTVSWNSGALTSGVHTFPAVLQSSGLYSLSSVVTVPSSSLGTQTYICNVNHKPSNTKVDKKVEPKSCDKTHTCPPCPAPEAAGGPSVFLFPPKPKDTLMISRTPEVTCVVVDVSHEDPEVKFNWYVDGVEVHNAKTKPREEQYNSTYRVVSVLTVLHQDWLNGKEYKCKVSNKALPAPIEKTISKAKGQPREPQVYTLPPSWDEPWGEDVSLTCLVKGFYPSDISVEWESNGQPENNYKTTPPVLDSDGSFFLYSKLTVPFERWMWPDEFSCSVMHEALHNHYTQKSLSLSPG light: DVVMTQTPLSLPVSLGDQASISCRSSQSLVHSNGNTYLRWYLQKPGQSPKVLIYKVSNRFSGVPDRFSGSGSGTDFTLKISRVEAEDLGVYFCSQSTHVPWTFGGGTKLEIKRTVAAPSVFIFPPSDEQLKSGTASVVCLLNNFYPREAKVQWKVDNALQSGNSQESVTEQDSKDSTYSLSSTLTLSKADYEKHKVYACEVTHQGLSSPVTKSFNRGEC
4 | – | 1.1 | 0.00014 | 130000 | 0.039 | 0.00023 | 5.9e+06 | 70.2 | 4 | 1.84 | anti-human LAG-3/PD-L1 mAb2 FS18-7-65/84G09 with LALA mutation (bispecific antibody, human IgG1, kappa, L234A L235A, also called FS18-7-65/84G09 LALA; F518-7-65/84G09LALA) heavy: EVQLVESGGGLVQPGRSLRLSCAASGFTFDDYAMHWVRQTPGKGLEWVSGISWKSNIIGYADSVKGRFTISRDNAKNSLYLQMNSLRAEDTALYYCARDITGSGSYGWFDPWGQGTLVTVSSASTKGPSVFPLAPSSKSTSGGTAALGCLVKDYFPEPVTVSWNSGALTSGVHTFPAVLQSSGLYSLSSVVTVPSSSLGTQTYICNVNHKPSNTKVDKKVEPKSCDKTHTCPPCPAPEAAGGPSVFLFPPKPKDTLMISRTPEVTCVVVDVSHEDPEVKFNWYVDGVEVHNAKTKPREEQYNSTYRVVSVLTVLHQDWLNGKEYKCKVSNKALPAPIEKTISKAKGQPREPQVYTLPPSWDEPWGEDVSLTCLVKGFYPSDIAVEWESNGYAEYNYKTTPPVLDSDGSFFLYSKLTVPYDRWVWPDEFSCSVMHEALHNHYTQKSLSLSPG light: DIQMTQSPSSLSASVGDRVTITCRASQSISSYLNWYQQKPGKAPKPLIYVASSLQSGVPSSFSGSGSGTDFTLTISSLQPEDFATYYCQQSYSNPITFGQGTRLEIKRTVAAPSVFIFPPSDEQLKSGTASVVCLLNNFYPREAKVQWKVDNALQSGNSQESVTEQDSKDSTYSLSSTLTLSKADYEKHKVYACEVTHQGLSSPVTKSFNRGEC
